Measured values reported in patent US20220332824A1 (NANJING GENSCRIPT BIOTECH, published 2022).
Residue numbers refer to the chain shown, from its start. One block for each binder: values may come before it.

Target: T1, human PD-1 (human, UniProt Q15116 25-288)
T1 construct: whole, on cells; also called PD-1 antigen
Assay: flow cytometry on CHO-K1 cells expressing PD-1
Method: For the constructed series of bispecific antibodies, the affinity of these samples with antigens was measured by using a flow cytometer. […] Then, an antibody-antigen binding curve was generated based on the geometric mean, raw data of four parameters was plotted by using the […] Prism V6.02 software, and a best fitted value program was compiled to analyze EC₅₀.

T1 sequence (Q15116 25-288): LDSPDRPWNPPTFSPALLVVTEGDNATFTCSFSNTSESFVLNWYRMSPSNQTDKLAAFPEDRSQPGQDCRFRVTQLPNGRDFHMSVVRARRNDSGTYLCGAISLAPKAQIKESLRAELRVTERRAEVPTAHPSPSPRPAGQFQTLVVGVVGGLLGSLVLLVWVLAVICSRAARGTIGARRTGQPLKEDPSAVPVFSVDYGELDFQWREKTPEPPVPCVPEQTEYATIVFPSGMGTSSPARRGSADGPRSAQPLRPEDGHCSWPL

binding result: binds
B1: bispecific antibody PD1a-E-LC (bispecific antibody, human IgG4 S228P, kappa)
heavy: not shown
light: EIVLTQSPATLSLSPGERATLSCRASENVGTYISWYQQKPGQAPRLLIYGASNRYTGIPARFSGSGSGTDFTLTISSLEPEDFAVYYCGESYGHLYTFGGGTKVEIKRTVAAPSVFIFPPSDEQLKSGTASVVCLLNNFYPREAKVQWKVDNALQSGNSQESVTEQDSKDSTYSLSSTLTLSKADYEKHKVYACEVTHQGLSSPVTKSFNRGECEPKSSDKTHTSPPSPEVQLVESGGGLVQPGGSLRLSCAVSGNIYNRNFMGWFRQAPGKGREGVSAIYTGTSRTYYADSVKGRFTISRDNAKNTVYLQMNSLRPEDTAVYYCAADLRDGFWDTGVWNTWGQGTLVTVSS
notes: PD1a sdAb fused by the E-linker to the C-terminus of light chain L0; also called L1 + H0

binding result: binds
B2: bispecific antibody PD1b-E-LC (bispecific antibody, human IgG4 S228P, kappa)
heavy: not shown
light: B1 light with R274L, A304S, P317A, D331E
notes: PD1b sdAb fused by the E-linker to the C-terminus of light chain L0; also called L2 + H0

binding result: binds
B3: bispecific antibody PD1a-E-LN (bispecific antibody, human IgG4 S228P, kappa)
heavy: not shown
light: EVQLVESGGGLVQPGGSLRLSCAVSGNIYNRNFMGWFRQAPGKGREGVSAIYTGTSRTYYADSVKGRFTISRDNAKNTVYLQMNSLRPEDTAVYYCAADLRDGFWDTGVWNTWGQGTLVTVSSEPKSSDKTHTSPPSPEIVLTQSPATLSLSPGERATLSCRASENVGTYISWYQQKPGQAPRLLIYGASNRYTGIPARFSGSGSGTDFTLTISSLEPEDFAVYYCGESYGHLYTFGGGTKVEIKRTVAAPSVFIFPPSDEQLKSGTASVVCLLNNFYPREAKVQWKVDNALQSGNSQESVTEQDSKDSTYSLSSTLTLSKADYEKHKVYACEVTHQGLSSPVTKSFNRGEC
notes: PD1a sdAb fused by the E-linker to the N-terminus of light chain L0; also called L3 + H0

binding result: binds
B4: bispecific antibody PD1b-E-LN (bispecific antibody, human IgG4 S228P, kappa)
heavy: not shown
light: B3 light with R45L, A75S, P88A, D102E
notes: PD1b sdAb fused by the E-linker to the N-terminus of light chain L0; also called L4 + H0

binding result: binds
B5: bispecific antibody PD1a-E-HN (bispecific antibody, human IgG4 S228P, kappa)
heavy: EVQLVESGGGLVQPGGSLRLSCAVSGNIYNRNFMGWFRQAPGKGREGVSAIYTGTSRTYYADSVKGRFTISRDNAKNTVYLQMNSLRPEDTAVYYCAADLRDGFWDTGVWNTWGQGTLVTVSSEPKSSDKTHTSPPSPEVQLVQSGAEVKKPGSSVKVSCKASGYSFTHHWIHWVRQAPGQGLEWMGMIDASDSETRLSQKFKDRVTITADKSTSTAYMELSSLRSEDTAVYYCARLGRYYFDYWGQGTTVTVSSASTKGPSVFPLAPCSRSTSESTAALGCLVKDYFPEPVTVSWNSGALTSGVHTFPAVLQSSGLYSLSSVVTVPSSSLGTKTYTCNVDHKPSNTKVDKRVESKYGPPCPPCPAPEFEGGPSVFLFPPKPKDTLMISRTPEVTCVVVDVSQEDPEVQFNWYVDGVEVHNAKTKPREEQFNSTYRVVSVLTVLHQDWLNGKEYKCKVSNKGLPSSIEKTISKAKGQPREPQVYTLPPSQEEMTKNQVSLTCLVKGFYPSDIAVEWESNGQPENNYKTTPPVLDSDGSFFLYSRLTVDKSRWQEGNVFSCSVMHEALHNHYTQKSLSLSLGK
light: EIVLTQSPATLSLSPGERATLSCRASENVGTYISWYQQKPGQAPRLLIYGASNRYTGIPARFSGSGSGTDFTLTISSLEPEDFAVYYCGESYGHLYTFGGGTKVEIKRTVAAPSVFIFPPSDEQLKSGTASVVCLLNNFYPREAKVQWKVDNALQSGNSQESVTEQDSKDSTYSLSSTLTLSKADYEKHKVYACEVTHQGLSSPVTKSFNRGEC
notes: PD1a sdAb fused by the E-linker to the N-terminus of heavy chain H0; also called H3 + L0

binding result: binds
B6: bispecific antibody PD1a-G15-HC (bispecific antibody, human IgG4 S228P, kappa)
heavy: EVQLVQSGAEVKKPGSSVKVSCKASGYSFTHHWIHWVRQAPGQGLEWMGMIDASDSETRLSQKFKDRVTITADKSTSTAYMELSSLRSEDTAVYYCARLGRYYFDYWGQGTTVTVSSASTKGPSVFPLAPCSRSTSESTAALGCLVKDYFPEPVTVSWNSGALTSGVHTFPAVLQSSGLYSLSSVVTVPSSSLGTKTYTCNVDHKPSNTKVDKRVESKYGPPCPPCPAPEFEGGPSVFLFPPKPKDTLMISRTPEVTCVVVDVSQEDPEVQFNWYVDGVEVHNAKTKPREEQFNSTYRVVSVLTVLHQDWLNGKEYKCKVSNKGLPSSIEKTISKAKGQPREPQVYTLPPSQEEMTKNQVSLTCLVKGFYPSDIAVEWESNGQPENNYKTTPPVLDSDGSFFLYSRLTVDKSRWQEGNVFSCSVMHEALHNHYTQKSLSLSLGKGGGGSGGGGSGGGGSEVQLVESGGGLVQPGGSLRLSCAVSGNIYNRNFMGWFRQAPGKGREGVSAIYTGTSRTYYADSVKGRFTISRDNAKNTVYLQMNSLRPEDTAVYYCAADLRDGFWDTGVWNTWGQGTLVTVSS
light: B5 light
notes: PD1a sdAb fused by the G15-linker to the C-terminus of heavy chain H0; also called H5 + L0

binding result: binds
B7: bispecific antibody PD1a-E-HC (bispecific antibody, human IgG4 S228P, kappa)
heavy: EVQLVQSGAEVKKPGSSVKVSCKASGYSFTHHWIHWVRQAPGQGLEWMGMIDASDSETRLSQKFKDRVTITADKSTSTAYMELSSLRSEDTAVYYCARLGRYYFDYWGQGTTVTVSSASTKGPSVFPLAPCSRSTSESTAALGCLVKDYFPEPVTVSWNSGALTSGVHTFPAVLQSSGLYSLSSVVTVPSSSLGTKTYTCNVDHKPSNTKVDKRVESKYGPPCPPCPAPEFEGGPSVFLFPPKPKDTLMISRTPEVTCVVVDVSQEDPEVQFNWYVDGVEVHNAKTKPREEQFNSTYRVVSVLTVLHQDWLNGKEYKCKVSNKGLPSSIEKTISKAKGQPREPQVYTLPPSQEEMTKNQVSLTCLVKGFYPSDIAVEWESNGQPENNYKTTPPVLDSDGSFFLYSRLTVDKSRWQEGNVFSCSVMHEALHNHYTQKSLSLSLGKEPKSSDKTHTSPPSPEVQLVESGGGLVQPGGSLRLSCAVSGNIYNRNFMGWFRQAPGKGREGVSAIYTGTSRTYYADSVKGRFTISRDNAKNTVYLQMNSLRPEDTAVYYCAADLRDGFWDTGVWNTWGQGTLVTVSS
light: B5 light
notes: PD1a sdAb fused by the E-linker to the C-terminus of heavy chain H0; also called H1 + L0

binding result: binds
B8: bispecific antibody PD1b-E-HC (bispecific antibody, human IgG4 S228P, kappa)
heavy: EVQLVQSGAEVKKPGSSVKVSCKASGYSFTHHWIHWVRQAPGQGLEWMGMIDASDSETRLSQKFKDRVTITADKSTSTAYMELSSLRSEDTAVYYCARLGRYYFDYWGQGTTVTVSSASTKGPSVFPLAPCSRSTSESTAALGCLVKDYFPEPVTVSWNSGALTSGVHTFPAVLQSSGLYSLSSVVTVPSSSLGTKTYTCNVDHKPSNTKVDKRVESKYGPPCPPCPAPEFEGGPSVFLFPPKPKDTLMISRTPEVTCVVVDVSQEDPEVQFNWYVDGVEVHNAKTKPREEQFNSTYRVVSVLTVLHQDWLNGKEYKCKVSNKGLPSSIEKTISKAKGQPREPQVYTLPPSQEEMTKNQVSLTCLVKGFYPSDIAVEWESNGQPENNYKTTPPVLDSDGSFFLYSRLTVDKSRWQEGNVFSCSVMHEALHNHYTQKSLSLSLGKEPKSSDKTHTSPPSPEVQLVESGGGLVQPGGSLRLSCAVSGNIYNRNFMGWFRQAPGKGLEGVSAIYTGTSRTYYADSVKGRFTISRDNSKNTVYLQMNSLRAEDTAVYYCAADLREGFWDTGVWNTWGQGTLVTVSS
light: B5 light
notes: PD1b sdAb fused by the E-linker to the C-terminus of heavy chain H0; also called H2 + L0

binding result: binds
B9: bispecific antibody PD1b-E-HN (bispecific antibody, human IgG4 S228P, kappa)
heavy: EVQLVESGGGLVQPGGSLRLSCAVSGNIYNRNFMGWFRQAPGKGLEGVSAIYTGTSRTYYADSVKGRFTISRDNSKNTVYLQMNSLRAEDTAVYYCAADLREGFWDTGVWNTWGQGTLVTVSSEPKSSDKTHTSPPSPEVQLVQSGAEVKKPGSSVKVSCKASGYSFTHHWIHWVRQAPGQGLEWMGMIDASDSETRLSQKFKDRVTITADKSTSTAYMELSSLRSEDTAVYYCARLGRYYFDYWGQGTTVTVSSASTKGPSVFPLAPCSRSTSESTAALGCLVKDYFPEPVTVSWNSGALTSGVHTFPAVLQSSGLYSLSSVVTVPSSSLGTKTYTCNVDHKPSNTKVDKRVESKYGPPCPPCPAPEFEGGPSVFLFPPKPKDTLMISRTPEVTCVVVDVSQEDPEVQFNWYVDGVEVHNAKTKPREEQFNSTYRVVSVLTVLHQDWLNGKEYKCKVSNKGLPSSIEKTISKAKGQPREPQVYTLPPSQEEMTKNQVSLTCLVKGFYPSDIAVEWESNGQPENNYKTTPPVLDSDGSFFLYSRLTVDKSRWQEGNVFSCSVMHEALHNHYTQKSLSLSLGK
light: B5 light
notes: PD1b sdAb fused by the E-linker to the N-terminus of heavy chain H0; also called H4 + L0
